Measured values as given in patent US20260193348A1 (ANTENGENE BIOLOGICS, published 2026).
Positions count from the first letter of the chain named. In names and notes the source's numbering stands.

T1: CD20 on DoHH2 cells (human, UniProt P11836 1-297)
T1 construct: whole, on cells; Endogenous CD20 on the human DoHH2 cell line; also called DoHH2 cells expressing CD20
T1 sequence (looked up): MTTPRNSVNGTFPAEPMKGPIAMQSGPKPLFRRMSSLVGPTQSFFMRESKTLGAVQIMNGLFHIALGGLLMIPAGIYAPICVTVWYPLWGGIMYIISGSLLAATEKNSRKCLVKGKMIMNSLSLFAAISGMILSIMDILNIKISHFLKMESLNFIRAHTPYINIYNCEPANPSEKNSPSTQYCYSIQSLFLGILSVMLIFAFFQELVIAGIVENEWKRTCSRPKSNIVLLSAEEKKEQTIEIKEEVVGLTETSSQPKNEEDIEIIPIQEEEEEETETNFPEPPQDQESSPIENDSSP

B1: ATG201-Y101F-20R (bispecific antibody, human IgG1, kappa, L234A L235A)
heavy 1: not shown
heavy 2: QVQLQQPGAELVKPGASVKMSCKASGYTFTSYNMHWVKQTPGRGLEWIGAIYPGNGDTSYNQKFKGKATLTADKSSSTAYMQLSSLTSEDSAVYYCARSTYYGGDWYFNVWGAGTTVTVSAASTKGPSVFPLAPSSKSTSGGTAALGCLVKDYFPEPVTVSWNSGALTSGVHTFPAVLQSSGLYSLSSVVTVPSSSLGTQTYICNVNHKPSNTKVDKKVEPKSCGGGGSGGGGSEVQLVQSGAEVKKPGSSVKVSCKASGYTFSSYVIHWVRQAPGQCLEWMGYINPYNDVIKYNEKFKGRVTLTSDKSTSTAYMELSSLRSEDTAVYYCARDSFYSYDGFAYWGQGTLVTVSSGGGGSGGGGSGGGGSGGGGSEIVLTQSPDFQSVTPKEKVTITCSASSSVSYMHWYQQKPDQSPKRLIYDTSKLASGVPSRFSGSGSGTDFTLTINSLEAEDAATYYCQQWSSNPPTFGCGTKVEIKGGGGSGGGGSDKTHTCPPCPAPEAAGGPSVFLFPPKPKDTLMISRTPEVTCVVVDVSHEDPEVKFNWYVDGVEVHNAKTKPREEQYNSTYRVVSVLTVLHQDWLNGKEYKCKVSNKALPAPIEKTISKAKGQPREPQVCTLPPSREEMTKNQVSLSCAVKGFYPSDIAVEWESNGQPENNYKTTPPVLDSDGSFFLVSKLTVDKSRWQQGNVFSCSVMHEALHNHYTQKSLSLSPGK
light: QIVLSQSPAILSASPGEKVTMTCRASSSVSYIHWFQQKPGSSPKPWIYATSNLASGVPVRFSGSGSGTSYSLTISRVEAEDAATYYCQQWTSNPPTFGGGTKLEIKRTVAAPSVFIFPPSDEQLKSGTASVVCLLNNFYPREAKVQWKVDNALQSGNSQESVTEQDSKDSTYSLSSTLTLSKADYEKHKVYACEVTHQGLSSPVTKSFNRGEC
notes: CD20xCD3 Fab-scFv-Fab: two C20R Fabs, anti-CD3 scFv 40E9-L2H3-Y101F.H; L234A/L235A
B2: ATG201-N55S-20R (bispecific antibody, human IgG1, kappa, L234A L235A)
heavy 1: not shown
heavy 2: B1 heavy 2 with N289S, F335Y
light: B1 light
notes: CD20xCD3 Fab-scFv-Fab: two C20R Fabs, anti-CD3 scFv 40E9-L2H3-N55S.H; L234A/L235A
B3: ATG-Bis-40E9 (bispecific antibody)
heavy: EVQLQQSGPELVKPGASVKMSCKASGYTFTSYVIHWVKQKTGQGLEWIGYFNPYNDGTKYNEEFKGKATLTSDKSSNTAYMELNSLTSDDSAVYFCARGGVRRYFDVWGAGTTVTVSS
heavy (part 1 of 2): B3 heavy
heavy (part 2 of 2): GGGGSGGGGSEVQLQLSGPELVKPGASVKMSCKASGYTFSSYVIHWVKQKPGQGLEWIGYINPYNDVIKYNEKFKGKATLTSDKSSSTAYMELSSLTSEDSAVYYCARDSYYSYDGFAYWGQGTLVTVSAGGGGSGGGGSGGGGSGGGGSQIVLTQSPAIMSASPGEKVTMTCSASSSVSYMHWYQQKSGTSPKRWIYDTSKLASGVPARFSGSGSGTSYSLTISSMEAEDAATYYCQQWSSNPPTFGGGTKVEIKGGGGSGGGGS
light: DIQMTQSPSSLSASLGERVSLTCRASQDIGSNLNWLQQEPDGTIKRLIYATFGLDSGVPKRFSGSRSGSDYSLTISSLESEDFVDYYCQQYASFPYTFGGGTKLEIK
notes: Fab-scFv-Fab format: two anti-GPRC5D Fab domains and one anti-CD3 scFv; LALA mutations; also called chimeric 2+1 bispecific antibody; parental antibody control; not shown: CH1; CL; CH1-hinge-CH2-CH3 with L234A, L235A; CH2-CH3 with L234A, L235A
B4: ATG201-Y101F-200 (bispecific antibody, human IgG1, kappa, L234A L235A)
heavy 1: not shown
heavy 2: EVQLVESGGGLVQPGRSLRLSCAASGFTFNDYAMHWVRQAPGKGLEWVSTISWNSGSIGYADSVKGRFTISRDNAKKSLYLQMNSLRAEDTALYYCAKDIQYGNYYYGMDVWGQGTTVTVSSASTKGPSVFPLAPSSKSTSGGTAALGCLVKDYFPEPVTVSWNSGALTSGVHTFPAVLQSSGLYSLSSVVTVPSSSLGTQTYICNVNHKPSNTKVDKKVEPKSCGGGGSGGGGSEVQLVQSGAEVKKPGSSVKVSCKASGYTFSSYVIHWVRQAPGQCLEWMGYINPYNDVIKYNEKFKGRVTLTSDKSTSTAYMELSSLRSEDTAVYYCARDSFYSYDGFAYWGQGTLVTVSSGGGGSGGGGSGGGGSGGGGSEIVLTQSPDFQSVTPKEKVTITCSASSSVSYMHWYQQKPDQSPKRLIYDTSKLASGVPSRFSGSGSGTDFTLTINSLEAEDAATYYCQQWSSNPPTFGCGTKVEIKGGGGSGGGGSDKTHTCPPCPAPEAAGGPSVFLFPPKPKDTLMISRTPEVTCVVVDVSHEDPEVKFNWYVDGVEVHNAKTKPREEQYNSTYRVVSVLTVLHQDWLNGKEYKCKVSNKALPAPIEKTISKAKGQPREPQVCTLPPSREEMTKNQVSLSCAVKGFYPSDIAVEWESNGQPENNYKTTPPVLDSDGSFFLVSKLTVDKSRWQQGNVFSCSVMHEALHNHYTQKSLSLSPGK
light: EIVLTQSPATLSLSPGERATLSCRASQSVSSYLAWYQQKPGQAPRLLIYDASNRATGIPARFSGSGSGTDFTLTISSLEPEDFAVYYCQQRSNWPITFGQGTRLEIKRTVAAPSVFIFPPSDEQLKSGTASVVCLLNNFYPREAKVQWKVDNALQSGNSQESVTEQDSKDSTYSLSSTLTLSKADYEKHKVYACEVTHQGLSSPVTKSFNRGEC
notes: L234A/L235A; also called ATG201-Y101F-20O
B5: ATG201-N55S-200 (bispecific antibody, human IgG1, kappa, L234A L235A)
heavy 1: not shown
heavy 2: B4 heavy 2 with N290S, F336Y
light: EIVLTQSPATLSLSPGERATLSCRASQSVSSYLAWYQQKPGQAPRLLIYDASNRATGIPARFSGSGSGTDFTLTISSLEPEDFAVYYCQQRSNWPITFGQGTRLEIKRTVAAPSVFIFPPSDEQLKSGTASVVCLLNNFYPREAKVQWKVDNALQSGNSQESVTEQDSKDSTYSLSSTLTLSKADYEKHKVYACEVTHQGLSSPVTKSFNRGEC
notes: L234A/L235A; also called ATG201-N55S-20O
B6: Bis-108+147-S102Q.H (bispecific antibody)
chain 1: EVQLVQSGAEVKKPGASVKVSCKASGYTFTSYVIHWVRQAPGQGLEWMGYFNPYNDGTKYNEEFKGRVTLTSDKSTSTAYMELRSLRSDDTAVYYCARGGVRRYFDVWGQGTTVTVSS
chain 2: EVQLVQSGAEVKKPGSSVKVSCKASGYTFTSYWMHWVRQAPGQCLEWMGNINPSSGATNYNEKFKSRVTLTVDKSTSTAYMELSSLRSEDTAVYYCARDRSQQYYFDYWGQGTTVTVSSGGGGSGGGGSGGGGSGGGGSDIVMTQSPDSLAVSLGERATINCKSSQSLLNSRSRKNYLAWYQQKPGQPPKLLIYWASTRESGVPDRFSGSGSGTDFTLTISSLQAEDVAVYYCTQSYTLRTFGCGTKVEIK
chain 3: DIQMTQSPSSLSASVGDRVTITCRASQDIGSNLNWLQQKPGKAIKRLIYATFGLDSGVPSRFSGSRSGTDFTLTISSLQPEDFATYYCQQYASFPYTFGGGTKVEIK
B7: Bis-108+147-R100Q.H (bispecific antibody)
chain 1: B6 chain 1
chain 2: B6 chain 2 with R100Q, Q102S
chain 3: B6 chain 3
B8: Bis-108+147-S32T.L (bispecific antibody)
chain 1: B6 chain 1
chain 2: B6 chain 2 with Q102S, S171T
chain 3: B6 chain 3

Experiments:
[1] = target: T2, CD3 on T cells / Jurkat cells (human, UniProt P07766 23-207; P04234 22-171; P09693 23-182); experiment: FACS on Jurkat cells expressing CD3
T2 construct: whole, on cells; Native CD3 complex on CD3+ T cells isolated from normal donors or on Jurkat cells; also called human CD3; CD3+ T cells

[2] = target: T1, CD20 on DoHH2 cells; experiment: FACS on DoHH2 cells expressing CD20 (FIG. 45E)
[3] = target: T3, GPRC5D on MM.1S cells (human, UniProt Q9NZD1 1-345); experiment: FACS on MM.1S cells
T3 construct: whole, on cells; MM.1S is called a GPRC5D positive expressed cell line and human multiple myeloma cells; also called G-protein coupled receptor family C group 5 member D
Method: (§1) The binding affinities of the generated humanized Fab-scFv-Fab bispecific antibodies were determined by FACS analysis. […] (a) Jurkat cells were washed by Staining Buffer (PBS+1% BSA) in round bottom 96-well plate. [0833] (b) Antibody dilutions and cells were added to each well, incubated at 4 degrees for 1 hour. [0834] (c) Cells were spined down at 300 g for 3 minutes, and the supernatants were discarded. [0835] (d) Cells were washed with Staining Buffer. […] (e) Step (d) was repeated and the cells were incubated for 0.5 hours at 4 degrees with secondary antibody in Staining Buffer. [0837] (f) After incubation, step (d)-(e) were repeated. […] (g) Staining Buffer was added and fluorescence signals were recorded by flow cytometry.
The binding affinities of the generated humanized Fab-scFv-Fab bispecific antibodies were determined by FACS analysis. The ATG-Bis-40E9 was used as positive control and hIgG1 isotype was used as negative control. The protocol for FACS analysis is identical to that described in Example 3.2, except that MM.1S cells were used in this example.

[4] = target: T3, GPRC5D on MM.1S cells; experiment: FACS on MM.1S cells; remark: listed apart in the source
Outline: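 Binding to MM.1S cells measured by flow cytometry; cells incubated with antibody dilutions for 1 h at 4 degrees in PBS + 1% BSA, washed, then stained with secondary antibody for 0.5 h at 4 degrees before fluorescence read-out.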

[5] = target: T4, CD3 on Jurkat cells (UniProt P07766 23-207; P04234 22-171; P09693 23-182); experiment: FACS on Jurkat cells
T4 construct: whole, on cells; On the cell, CD3 stands in the TCR-CD3 complex; also called cluster of differentiation 3
Method: as §1
The binding affinities of the generated humanized Fab-scFv-Fab bispecific antibodies were determined by FACS analysis. The ATG-Bis-40E9 described in Example 1 was used as positive control and hIgG1 isotype was used as negative control. The protocol for FACS analysis is described in Example 3.2 above.

[6] = target: T4, CD3 on Jurkat cells; experiment: FACS on Jurkat cells; remark: listed apart in the source
Method: as §1
The binding affinities of the generated humanized Fab-scFv-Fab bispecific antibodies were determined by FACS analysis. The protocol for FACS analysis is identical to that described in Example 3.2, except that different test antibodies were used.

[7] = target: T3, GPRC5D on MM.1S cells; experiment: cell-based or functional assay
[8] = target: T3, GPRC5D on MM.1S cells; experiment: cell-based or functional assay; remark: listed apart in the source
[9] = target: T3, GPRC5D on MM.1S cells; experiment: cell-based or functional assay; remark: listed apart in the source
[10] = target: T3, GPRC5D on MM.1S cells; experiment: cell-based or functional assay; remark: listed apart in the source

T3 sequence (Q9NZD1 whole entry): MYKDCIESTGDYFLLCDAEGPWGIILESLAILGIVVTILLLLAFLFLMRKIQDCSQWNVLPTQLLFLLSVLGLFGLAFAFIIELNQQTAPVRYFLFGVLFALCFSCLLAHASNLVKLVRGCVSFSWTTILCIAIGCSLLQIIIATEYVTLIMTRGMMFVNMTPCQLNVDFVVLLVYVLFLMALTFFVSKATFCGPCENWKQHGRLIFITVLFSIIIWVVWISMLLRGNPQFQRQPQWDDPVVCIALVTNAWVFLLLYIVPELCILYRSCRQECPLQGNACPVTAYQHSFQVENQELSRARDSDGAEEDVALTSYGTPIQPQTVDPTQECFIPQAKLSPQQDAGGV
T4 sequence (P07766 23-207, chain 1 of 3): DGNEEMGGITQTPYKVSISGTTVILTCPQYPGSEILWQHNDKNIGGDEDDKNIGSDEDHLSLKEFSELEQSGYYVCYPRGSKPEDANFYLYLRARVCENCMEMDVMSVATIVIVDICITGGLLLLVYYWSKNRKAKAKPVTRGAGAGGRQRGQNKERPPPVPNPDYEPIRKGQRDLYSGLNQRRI
T4 sequence (P04234 22-171, chain 2 of 3): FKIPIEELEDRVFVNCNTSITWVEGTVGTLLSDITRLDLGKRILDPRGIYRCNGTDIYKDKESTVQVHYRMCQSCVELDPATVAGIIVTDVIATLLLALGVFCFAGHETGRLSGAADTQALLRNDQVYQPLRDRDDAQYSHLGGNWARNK
T4 sequence (P09693 23-182, chain 3 of 3): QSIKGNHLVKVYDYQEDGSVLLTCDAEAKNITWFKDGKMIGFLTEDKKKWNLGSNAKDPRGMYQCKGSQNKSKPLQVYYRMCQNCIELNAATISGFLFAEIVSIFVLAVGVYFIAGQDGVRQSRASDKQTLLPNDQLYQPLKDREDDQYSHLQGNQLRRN
T2 sequence (P07766 23-207, chain 1 of 3): as the sequence (P07766 23-207, chain 1 of 3) above
T2 sequence (P04234 22-171, chain 2 of 3): as the sequence (P04234 22-171, chain 2 of 3) above
T2 sequence (P09693 23-182, chain 3 of 3): as the sequence (P09693 23-182, chain 3 of 3) above

Binder	binding result [1]	EC50 [2]	EC50 [3]	Top signal [3]	IC50 of T-cell dependent cytotoxicity on MM.1S cells [7]	Top (%) target cell killing, MM.1S cells [7]	EC50, Jurkat-NFAT-Luciferase assay in the presence of MM.1S cells [8]	Top RLU, Jurkat-NFAT-Luciferase assay in the presence of MM.1S cells [8]	Top signal [5]	other results
B1	binds	4.05 nM	–	–	–	–	–	–	–	–
B2	binds	3.13 nM	–	–	–	–	–	–	–	–
B3	–	–	2.43 nM	1880 MFI	0.00063 nM	99.2%	0.011 nM	564 RLU	–	Ratio of EC50 (relative to ATG-Bis-40E9) [4]: 1 ratio; Ratio of Top MFI (relative to ATG-Bis-40E9) [4]: 1 ratio; EC50 [5]: 74.7 nM; Ratio of EC50 (relative to ATG-Bis-40E9) [6]: 1 ratio; Ratio of Top MFI (relative to ATG-Bis-40E9) [6]: 1 ratio; Ratio of IC50 (relative to ATG-Bis-40E9), MM.1S cytotoxicity [9]: 1 ratio; Ratio of Top cytotoxicity (relative to ATG-Bis-40E9), MM.1S cytotoxicity [9]: 1 ratio; Ratio of EC50 (relative to ATG-Bis-40E9), luciferase assay on MM.1S [10]: 1 ratio; Ratio of Top RLU (relative to ATG-Bis-40E9), luciferase assay on MM.1S [10]: 1 ratio
B4	binds	7.55 nM	–	–	–	–	–	–	–	–
B5	binds	4.89 nM	–	–	–	–	–	–	–	–
B6	–	–	1.29 nM	1820 MFI	2.78 nM	131%	0.26 nM	358 RLU	141 MFI	–
B7	–	–	1.87 nM	1830 MFI	7.53 nM	46.3%	0.98 nM	39.2 RLU	50.9 MFI	–
B8	–	–	2 nM	2040 MFI	4.76 nM	166%	0.22 nM	380 RLU	158 MFI	–
